One may read the Kd as the constant that tells how readily two partners part at equilibrium. A word on the koff: it is the rate constant with which the complex falls apart. Usually kon stands for the second-order rate constant of association.

These results are taken from US20110243928A1 (published 2011).

Assay [1] addresses T1, E. coli-expressed recombinant human IL-13 (human, UniProt P35225 35-146).
T1 construct: Untagged E. coli-expressed human IL-13; also called hIL-13; human IL13 (CA)
The assay can be described thus: BIAcore analysis 2.

Assay [2] deals with T2, E. coli-expressed recombinant cynomolgus IL-13 (cynomolgus, UniProt Q5I6E4 21-132 (Macaca thibetana entry)).
T2 construct: also called cyno IL13 (CA); cIL-13
T2 chain: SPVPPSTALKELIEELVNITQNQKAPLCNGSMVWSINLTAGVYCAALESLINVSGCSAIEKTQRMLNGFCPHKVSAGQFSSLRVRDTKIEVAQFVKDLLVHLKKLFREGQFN
Briefly: BIAcore analysis 4, antibody captured on Protein A, IL-13 in solution. How it is done:
(§1) Completed for both human and cynomolgus IL-13 (E. coli-expressed protein). The quoted KD values are the average from 5 different IL-13 concentration curves (done in triplicate).
(§2) The kinetics analysis was performed on a Biacore 3000 machine, using an antibody capture method. Briefly, for the chimeric 6A1 and humanised antibody constructs Protein A capture was used, whilst for the parental murine 6A1 antibody, capture was by a anti-mouse Fc antibody supplied by Biacore. Briefly, the method is as follows, the capture ligand was immobilised to a CM5 Biosensor chip by primary amine coupling in accordance with Biacore standard protocols and using the reagents supplied in Biacores' primary amine coupling kit. The method involves activation CM5 sensor surface by passing a solution of 50 mM N-hydroxy-succinimide (NHS) and 200 mM N-ethyl-N′-dimethylaminopropyl […] (EDC) over the surface. Then, the capture ligand (dissolved in acetate buffer pH5 or pH4.5) was coupled to the activated sensor surface after which any still activated esters were blocked by an injection of 1M ethanolamine hydrochloride, pH8.5.
(§3) The candidate antibody was then passed over the Protein A or anti-mouse Fc antibody surface, depending on whether it was human or mouse in origin and captured. Once a stable binding signal was seen IL13 was passed over the captured antibody surface at various defined concentrations. The subsequent binding curves were analysed with Biacore analysis software BIAeval v4.1 to determine kinetics. The experiments were carried out using Biacore HBS-EP buffer.
For orientation: In SPR one partner is held on a chip, and binding of the other changes the refractive index at the surface.

Assay [3] deals with T1, E. coli-expressed recombinant human …. Described as above. As for the experimental part: as §1, §2, §3

T1 sequence (P35225 other isoform, or with tags, fused parts or gaps): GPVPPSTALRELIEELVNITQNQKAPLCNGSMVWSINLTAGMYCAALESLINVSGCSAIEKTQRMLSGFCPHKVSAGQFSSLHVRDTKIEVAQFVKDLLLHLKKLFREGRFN

B1: L1+A1 (antibody, human IgG1, kappa, V domains shown)
VH: QVQLVQSGAEVKKPGSSVKVSCKASGFYIKDTYMHWVRQAPGQGLEWMGTIDPANGNTKYVPKFQGRVTITADESTSTAYMELSSLRSEDTAVYYCARSIYDDYHYDDYYAMDYWGQGTLVTVSS
VL: DIVMTQSPLSLPVTPGEPASISCRSSQNIVHINGNTYLEWYLQKPGQSPRLLIYKISDRFSGVPDRFSGSGSGTDFTLKISRVEADDVGIYYCFQGSHVPWTFGQGTKLEIKR
notes: Humanised 6A1, VH construct A1 and VL construct L1, human gamma1 wild type / kappa constant regions; also called A1L1; humanised anti-IL-13 mAb L1+A1
On to B1, for which the Kd amounted to 0.149 nM in assay [1], 0.08 nM in assay [2] and 0.17 nM in assay [3]. Further, the koff in assay [1] stood at 6.95e-05 s⁻¹; in assay [2], 5.86e-05 s⁻¹; in assay [3], 0.00014 s⁻¹. Also, the on-rate (kon) in assay [1] worked out at 466000 M⁻¹ s⁻¹; in assay [2], 730000 M⁻¹ s⁻¹; in assay [3], 824000 M⁻¹ s⁻¹.
